Experiment: yeast display, Sf9 membrane polyspecificity reagent, FACS + sequencing; frameworks hold sequencing errors
Procedure, shortened: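 Sorting gates, low and high (top ~1%), were placed on anti-HA fluorescence to track expression and on streptavidin fluorescence to track reagent binding. A clone's polyreactivity label is taken from the gate it came out of. The reagent was 10% biotinylated, detergent-solubilized Sf9 membrane, applied for 1 hour at 4 °C to galactose-induced yeast display cells.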

Sequence	polyreactivity (PSR sort gate)
QVQLVESGGGLVQAGGSLRLSCAASGRTFAAYAMGWYRPAPGKESELVAAISSSSGNTYYADSVKGRFTISRDNAKNTVYLQMNSLKPEDTAVYYCNAQRRFNANYWYDYWGQGTQVTVSS	high polyreactivity
QVQLVESGGGLVQAGGSLRLSCAASGITFAYYAMGWYRQAPGKERELVAAISRSGGGTYYADSVKGRFTISRDNAKNTVYLQMNSLKPEDTAVYYCNKDYPYYNSGPWAYKFDYWGQGTQVTVSS	high polyreactivity
QVQLVDSGGGLVPAGGSLRLSCAASGFTFTRYVMGWYRQAPGKERELVAAISGSGGSTNYADSVKGRFTISRDNAKNTVYLQMNSLKPEDTAVYYCAVGYRGWDGYWGQGTQVTVSS	high polyreactivity
QVQLVESGGGLVQAGGSLRLSCAASGSTVWFYAMGWYRQAPGKERELVAVISNSGSTYYADSVKGRFTISRDNAKNTVYLQMNSLKPEDTAVYYCNKDGGGDSYWYDYWGQGTQVTVSS	low polyreactivity
HAQLQESGGGLVQAGGSLRRSCAASGSIFRFSGMGWYRRAPGKERELVASIGFGSITYYADRVKGRFTISRDHANNTVYLQMNSLKPEDTAVYYCAVQVQDESWLDYWGQGTQVTVSC	low polyreactivity
QVQLVESGGGLVQAGGSLRLSCAASGRTSDSYAMGWYRQAPGKERELVAVISRSGRTYYADSVKGRFTISRDNAKNTVYLQMNSLKPEDTAVYYCAAKWFRTWSGYWGQGTQVTVSS	high polyreactivity
QVQRVESGGGLVQAGGSLRLSCAASGRIFSLNAMGWYRQAPGKEREFVAAISTSSGTTYYADSVKGRFTISRDNAKNTVYLQMNSLKPEDTAVYYCAAKRPSRYYPYRWGFDYWGQGTQVTVSS	high polyreactivity
QVQLVESGGGLVQAGGSLRLSCAASGFIFYYYAMGWYRQAPGKERELVAAISTSGGSTYYADSVKGRFTISRDNAKNTVYLQMNSLKPEDTAVYYCAAKIIGRPRTTDRYDYWGQGTQVTVSS	low polyreactivity
QVQLVESGGGLVQAGGSLRISCAASGRIFTTYAMGWYRQAPGKEREFVADITLSGSSTYYADSVKGRFTISRDNAKNTVYLQMNSLKPEDTAVYYCAARTGRYYRRYDYWGQGTQETVSS	high polyreactivity
QVQLVESGGGLVQAGGSLRLSCAASGRTFRSYAMGWYRQAPGKEREFVAAISRSGASTRYADSVKGRFTISRDNAKNTVYLQMNSLKPEDTAVYYCAARYYPWKVNRFSYWYDYWGQGTQVTVSS	high polyreactivity
QVQLVESGGGLVQAGGSLRLSCAASGRIFILYGMGWYRQAPGKERELVAAIRWSGASTYYADSVKGRFTISRDNAKNTVYLQMNSLKPEDTAVYYCAATVGFTPSFWYSSKYDYWGQGTQVTVSS	low polyreactivity
QVQLVESGGCLVQAGGSLRLSCAASGFTFYRSVMGWYRQAPGKERELVAAITSDGGSTYYAVSVKGRFTISRDNGKNTVYLQMNSLKPEDTAVYYCSADASTWYTEEYWGQGNQVTVSS	low polyreactivity
QVQLVESGGGVVQAGGSLRLSCAASGSTFYAYAMGWYRQAPGKERELVAGISKRVGRTYYADSVKGRFTISRDNAKNTVYLQRNSLKPEDTAVYYCAAQFYLFYEYEYWGQGTQVTVSS	high polyreactivity
QVQLVESGGGLVQAGGSLRLSCAASGFIFYTYAMGWYRQAPGKERELGADITSGGSTYYADSVKGRFTISRDNAKNTVYLQMNSLKPEDTAVYYCAADPGYPANRTEWRDFDYWGQGTQVTVSS	low polyreactivity
QVQLVESGGGLVQAGGSLRLSCAASGSIFGPYAMVWYRQAPGKERELVAAISSRGSSTYYADSVKGRFTISRDNAKNTVYLQMNSLKPEDTAVYYCAALYYVYGYDYWGQGTQVTVSS	high polyreactivity
QVQLVESGGGLVQAGGSLRLSCAASGITFRGYAMGWYRQAPGKERELVATISSGGSTNYADSVKGRFTISRDNAKNTVDLQRISLKPEDTAVYYCNAVYRRGYGYWGQGTQVTVSS	high polyreactivity

Sequence	polyreactivity (PSR sort gate)
QVQLVESGGGLVQAGGSLRLSCAASGRIFYYNTMGWYRQAPGKEREFVAAITGSGGITYYADSVKGRFTISRDNAKNTVYLQMNSLKPEDTAVYYCAARTRYSIYRYYYWGQGTQVTVSS	high polyreactivity
QVQLVESGGGLVQAGGSLRLSCAASGSTFYQNAMGWYRQAPGKERELVAAISSSGRTYYADSVKGRFTISRDNAKNTVYLQMNSLKPEDTAVYYCAVGAYGSLYSIRVAYGSMDYWGQGTQVTVSS	high polyreactivity
QVQLGESGGGLVQAGGSLRLSCAASGFIFRAYAMGWYRQAPGKERELVASISSRGGSTYYADSVKGRFTISRDNAKNTVYLQMNSLKPEDTAVYYCNAVYTYFPGWKYDYWGQGTQVTVSS	high polyreactivity
QVQLVESGGGLVQAGGSLRLSSAASGSILPLYAMGWYRQAPGKERELVADISWSGGDTYYADSVKGRFTISRDKAKNTVYLQMNSLKPEDTAVYYCNSRLDYSTYESSPVTRKRVYWGQGTQVTVSS	low polyreactivity
QVQLVESGGGLVQAGGSLRLSCAASGNTFWRYTMGWYRQAPGKERELVAAISSSGGSTYYADSVKGRFTISRDNAKNTVYLQMNSLKPEDTAVYYCAAERRLYKIFSYGYWGQGTQVTVSS	high polyreactivity
QVQLVESGGGLVQAGGSLRLSSAASGFIFRRYAMGWYRQAPGKERELVAAISGSGGRTYYADSVKGRFTISRDNAKNSVYLQMNSLKPEDTAVYYCAADQGSLLYDYWGQGTKVTVSS	high polyreactivity
QVQLVESGGGLVQAGGSLRLSCAASGRTFGYTMGWYRQAPGKERELVAAITRSVTTYYADSVKGRFTISRDNAKNTVYLQMNSLKPEDTAVYYCAAVNTLREMYWGQGTQVTVSS	high polyreactivity
QVQLVESGGGLVQAGGSLRLSCAASGSTFYINAMGWYRPAPGKERELVAAITDSGGSTYYADSVKGRFTISRDNAKNTVSLQMNSLKPEDTAVYYCATDGYDPRGYDYWGQGTQVTVSS	high polyreactivity
QVQLVESGGGLVQAGGSLRLSCAASGSIFKLYAMGWYRQAPGKERELVASISVSGGSTYYADSVKGRFTISRDNAKNTVYLQMNSLKPEDTAVYYCAAEKRSSIVGSGGNYWGQGTQVTVSS	low polyreactivity
QVQLVESGGGLVQAGGSLRLSCAASGRIFLYYAMGWYRQAPGKERELVAAITSSGGDTYYADSVKGRFTISRDNAKNTVYLQMNSLKPEDTAVYYCAALGGRYRASTYGYWGQGTQVTVSS	high polyreactivity
QVQLVESGGGLVQAGGSLRLSCAASGITYGTYAMGWYRQAPGKERELVARITGSGGRTYYADSVKGRFTISRDNAKNTVYLQMISLKPEDTAVYYCAAETWRRYLFGYWGQGTQVTVSS	high polyreactivity
QVQLVESGGGLVQAGGSLRLSCAASGFTFYGNAMGWYRQAPGKERELVSAISYNGGSTYYADSVKGRFTISRDNAKNTVYLQMNSLKPEDTAVYYCAAGYYWQYTSSSAQYAYDYWGQGTQVTVSS	low polyreactivity
QVQLVESGGGLVQAGGSLRLSCAASGIILGAYDMGLYRQAPGKERELVAAINRNGDRTYYADSVKGRFTISRDNAKNTVYLQMKSLKPEDTAVYFCAAPRVVRTFDYWGQGTQVTVSS	high polyreactivity
QVQLVESGGGLVQAGGSLRLSCAASGNTFREYTMGWYRQAPGKERELVAGISGSGGRTYYADSVKGRFTISRDNAKNTVYLQMNSLKPEDTAVYYCNARWYYGIGYNYWGQGTQVSVSS	high polyreactivity
QVQLVESGGGLVQAGGSLRLSCAASGRIFLINAMGWYRQAPGKERELVAAITSSGGSTYYADSVKGRFTISRDNAKNTVYLQMNSLKPEDTAVYYCATRSYRGRPYNYWGQGTQVTVSS	high polyreactivity
QVQLVESGGGLVQAGGSLRLSCAASGGILVFYAMGWYRQAPGKERELVAAINVSGGSTYYADSVKGRFTISRDNAKNTVYLQMNSLKPEDTAVYYCAALGPYLDYGVQYGYWGQGTQVTVSS	low polyreactivity
